According to paper PMC3791464 (eLife, 2013):

B1: GFP–Orc6 wild type (fly transgene) [Drosophila melanogaster] / Drosophila Orc2, endogenous in fly ovaries [Drosophila (endogenous in fly ovaries)] (parent)
chain 1: MTTLIEQLITKMGLREEPNVLEKTTELVRLLELRSTNVPLQINEYGKIVLCADLASCMIGIAFDKEQALKLSGLRKSQYLNNKRMFEKLLDLNKLASVNDICVQLGLNEVARKAEELMTLFKGVAATEDMGTDTSHPQYATMAVFQACRLLKKKVSKSKLMPFSNLRPSQFQLLEQQWERMIAKHHKESKVPSSTDMEGKLKENQNENIKGHEAKKAHKPPPEDYEIWKARMLAKAQAKLKELEASQSHMDSQLLEA
chain 2: MSASNKGGYKTPRKENLMSIENLTNSEEESEDLNTAMVGNAVESQPKVTSRRSTRRPSPTKKYQAYQKESNGKGQEERIVVNYVEMSDERSSDAEDQEEEESIEESENAARPAAKDLHLIQSEYNVAGTSMFGFNTPKKRDAMALAALNATPCTPKTPKTPRLGVKTPDTKRKKSMDQPKTPAHVRTRVKKQIAKIVADSDEDFSGDESDFRPSDEESSSSSSSSDAGNSSDNDAADDEPKTPSRARRAIVVPVLPKTPSAARLRQSARAKKSNEFVPESDGYFHSHASSKILTSDHTLDRLKNPRLAADRVFSLLSEIKTSAEHEGSINAIMEEYRSYFPKWMCILNEGFNILLYGLGSKHQLLQSFHREVLHKQTVLVVNGFFPSLTIKDMLDSITSDILDAGISPANPHEAVDMIEEEFALIPETHLFLIVHNLDGAMLRNVKAQAILSRLARIPNIHLLASIDHINTPLLWDQGKLCSFNFSWWDCTTMLPYTNETAFENSLLVQNSGELALSSMRSVFSSLTTNSRGIYMLIVKYQLKNKGNATYQGMPFRDLYSSCREAFLVSSDLALRAQLTEFLDHKLVKSKRSVDGSEQLTIPIDGALLQQFLEEQEKK

Variants of: B1
Test: GFP fluorescence of anti-Orc2 immunoprecipitates
Conditions: with Drosophila Orc2, endogenous in fly ovaries [Drosophila (endogenous in fly ovaries)]; fly ovary extracts; three independent experiments; read off a plot

| response (arbitrary units) | Variant |
| --- | --- |
| 470 | chain 1 MTTLIEQLITKMGLREEPNVLEKTTELVRLLELRSTNVPLQINEYGKIVLCADLASCMIGIAFDKEQALKLSGLRKSQYLNNKRMFEKLLDLNKLASVNDICVQLGLNEVARKAEELMTLFKGVAATEDMGTDTSHPQYATMAVFQACRLLKKKVSKSKLMPFSNLRPSQFQLLEQQWERMIAKHHKESKVPSSTDMEGKLKENQNENIKGHEAKKAHKPPPEDYEIAAARMLAKAQAKLKELEASQSHMDSQLLEA [chain 1 W228A K229A] |
| 550 | chain 1 MTTLIEQLITKMGLREEPNVLEKTTELVRLLELRSTNVPLQINEYGKIVLCADLASCMIGIAFDKEQALKLSGLRKSQYLNNKRMFEKLLDLNKLASVNDICVQLGLNEVARKAEELMTLFKGVAATEDMGTDTSHPQYATMAVFQACRLLKKKVSKSKLMPFSNLRPSQFQLLEQQWERMIAKHHKESKVPSSTDMEGKLKENQNENIKGHEAKKAHKPPPEAAEIWKARMLAKAQAKLKELEASQSHMDSQLLEA [chain 1 D224A Y225A] |
